Measurements reported in IntAct's records for PubMed 19411703.

B1: Phospholipid-transporting ATPase DNF1 (Saccharomyces cerevisiae), P32660 (parent)
chain: MSGTFHGDGHAPMSPFEDTFQFEDNSSNEDTHIAPTHFDDGATSNKYSRPQVSFNDETPKNKREDAEEFTFNDDTEYDNHSFQPTPKLNNGSGTFDDVELDNDSGEPHTNYDGMKRFRMGTKRNKKGNPIMGRSKTLKWARKNIPNPFEDFTKDDIDPGAINRAQELRTVYYNMPLPKDMIDEEGNPIMQYPRNKIRTTKYTPLTFLPKNILFQFHNFANVYFLVLIILGAFQIFGVTNPGLSAVPLVVIVIITAIKDAIEDSRRTVLDLEVNNTKTHILEGVENENVSTDNISLWRRFKKANSRLLFKFIQYCKEHLTEEGKKKRMQRKRHELRVQKTVGTSGPRSSLDSIDSYRVSADYGRPSLDYDNLEQGAGEANIVDRSLPPRTDCKFAKNYWKGVKVGDIVRIHNNDEIPADIILLSTSDTDGACYVETKNLDGETNLKVRQSLKCTNTIRTSKDIARTKFWIESEGPHSNLYTYQGNMKWRNLADGEIRNEPITINNVLLRGCTLRNTKWAMGVVMFTGGDTKIMLNSGITPTKKSRISRELNFSVVINFVLLFILCFVSGIANGVYYDKKGRSRFSYEFGTIAGSAATNGFVSFWVAVILYQSLVPISLYISVEIIKTAQAAFIYGDVLLYNAKLDYPCTPKSWNISDDLGQVEYIFSDKTGTLTQNVMEFKKCTINGVSYGRAYTEALAGLRKRQGIDVETEGRREKAEIAKDRDTMIDELRALSGNSQFYPEEVTFVSKEFVRDLKGASGEVQQRCCEHFMLALALCHSVLVEANPDNPKKLDLKAQSPDEAALVATARDVGFSFVGKTKKGLIIEMQGIQKEFEILNILEFNSSRKRMSCIVKIPGLNPGDEPRALLICKGADSIIYSRLSRQSGSNSEAILEKTALHLEQYATEGLRTLCIAQRELSWSEYEKWNEKYDIAAASLANREDELEVVADSIERELILLGGTAIEDRLQDGVPDCIELLAEAGIKLWVLTGDKVETAINIGFSCNLLNNEMELLVIKTTGDDVKEFGSEPSEIVDALLSKYLKEYFNLTGSEEEIFEAKKDHEFPKGNYAIVIDGDALKLALYGEDIRRKFLLLCKNCRAVLCCRVSPSQKAAVVKLVKDSLDVMTLAIGDGSNDVAMIQSADVGIGIAGEEGRQAVMCSDYAIGQFRYLARLVLVHGRWSYKRLAEMIPEFFYKNMIFALALFWYGIYNDFDGSYLYEYTYMMFYNLAFTSLPVIFLGILDQDVNDTISLVVPQLYRVGILRKEWNQRKFLWYMLDGLYQSIICFFFPYLVYHKNMIVTSNGLGLDHRYFVGVYVTTIAVISCNTYVLLHQYRWDWFSGLFIALSCLVVFAWTGIWSSAIASREFFKAAARIYGAPSFWAVFFVAVLFCLLPRFTYDSFQKFFYPTDVEIVREMWQHGHFDHYPPGYDPTDPNRPKVTKAGQHGEKIIEGIALSDNLGGSNYSRDSVVTEEIPMTFMHGEDGSPSGYQKQETWMTSPKETQDLLQSPQFQQAQTFGRGPSTNVRSSLDRTREQMIATNQLDNRYSVERARTSLDLPGVTNAASLIGTQQNN
partner: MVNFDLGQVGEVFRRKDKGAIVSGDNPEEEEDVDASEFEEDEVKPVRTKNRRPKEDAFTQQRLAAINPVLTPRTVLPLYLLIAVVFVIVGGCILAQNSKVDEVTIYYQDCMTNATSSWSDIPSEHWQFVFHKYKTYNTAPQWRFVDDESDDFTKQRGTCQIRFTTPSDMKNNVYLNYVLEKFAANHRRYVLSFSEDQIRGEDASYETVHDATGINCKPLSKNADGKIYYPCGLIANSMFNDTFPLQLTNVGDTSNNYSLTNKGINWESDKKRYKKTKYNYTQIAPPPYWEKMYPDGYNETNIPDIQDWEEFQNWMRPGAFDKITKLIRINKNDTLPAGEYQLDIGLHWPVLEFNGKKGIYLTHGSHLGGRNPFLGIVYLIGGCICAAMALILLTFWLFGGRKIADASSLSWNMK
B2: Phospholipid-transporting ATPase DRS2 (Saccharomyces cerevisiae), P39524 (parent)
chain: MNDDRETPPKRKPGEDDTLFDIDFLDDTTSHSGSRSKVTNSHANANYIPPSHVLPEETIDLDADDDNIENDVHENLFMSNNHDDQTSWNANRFDSDAYQPQSLRAVKPPGLFARFGNGLKNAFTFKRKKGPESFEMNHYNAVTNNELDDNYLDSRNKFNIKILFNRYILRKNVGDAEGNGEPRVIHINDSLANSSFGYSDNHISTTKYNFATFLPKFLFQEFSKYANLFFLCTSAIQQVPHVSPTNRYTTIGTLLVVLIVSAMKECIEDIKRANSDKELNNSTAEIFSEAHDDFVEKRWIDIRVGDIIRVKSEEPIPADTIILSSSEPEGLCYIETANLDGETNLKIKQSRVETAKFIDVKTLKNMNGKVVSEQPNSSLYTYEGTMTLNDRQIPLSPDQMILRGATLRNTAWIFGLVIFTGHETKLLRNATATPIKRTAVEKIINRQIIALFTVLIVLILISSIGNVIMSTADAKHLSYLYLEGTNKAGLFFKDFLTFWILFSNLVPISLFVTVELIKYYQAFMIGSDLDLYYEKTDTPTVVRTSSLVEELGQIEYIFSDKTGTLTRNIMEFKSCSIAGHCYIDKIPEDKTATVEDGIEVGYRKFDDLKKKLNDPSDEDSPIINDFLTLLATCHTVIPEFQSDGSIKYQAASPDEGALVQGGADLGYKFIIRKPNSVTVLLEETGEEKEYQLLNICEFNSTRKRMSAIFRFPDGSIKLFCKGADTVILERLDDEANQYVEATMRHLEDYASEGLRTLCLAMRDISEGEYEEWNSIYNEAATTLDNRAEKLDEAANLIEKNLILIGATAIEDKLQDGVPETIHTLQEAGIKIWVLTGDRQETAINIGMSCRLLSEDMNLLIINEETRDDTERNLLEKINALNEHQLSTHDMNTLALVIDGKSLGFALEPELEDYLLTVAKLCKAVICCRVSPLQKALVVKMVKRKSSSLLLAIGDGANDVSMIQAAHVGVGISGMEGMQAARSADIAVGQFKFLKKLLLVHGSWSYQRISVAILYSFYKNTALYMTQFWYVFANAFSGQSIMESWTMSFYNLFFTVWPPFVIGVFDQFVSSRLLERYPQLYKLGQKGQFFSVYIFWGWIINGFFHSAIVFIGTILIYRYGFALNMHGELADHWSWGVTVYTTSVIIVLGKAALVTNQWTKFTLIAIPGSLLFWLIFFPIYASIFPHANISREYYGVVKHTYGSGVFWLTLIVLPIFALVRDFLWKYYKRMYEPETYHVIQEMQKYNISDSRPHVQQFQNAIRKVRQVQRMKKQRGFAFSQAEEGGQEKIVRMYDTTQKRGKYGELQDASANPFNDNNGLGSNDFESAEPFIENPFADGNQNSNRFSSSRDDISFDI
partner: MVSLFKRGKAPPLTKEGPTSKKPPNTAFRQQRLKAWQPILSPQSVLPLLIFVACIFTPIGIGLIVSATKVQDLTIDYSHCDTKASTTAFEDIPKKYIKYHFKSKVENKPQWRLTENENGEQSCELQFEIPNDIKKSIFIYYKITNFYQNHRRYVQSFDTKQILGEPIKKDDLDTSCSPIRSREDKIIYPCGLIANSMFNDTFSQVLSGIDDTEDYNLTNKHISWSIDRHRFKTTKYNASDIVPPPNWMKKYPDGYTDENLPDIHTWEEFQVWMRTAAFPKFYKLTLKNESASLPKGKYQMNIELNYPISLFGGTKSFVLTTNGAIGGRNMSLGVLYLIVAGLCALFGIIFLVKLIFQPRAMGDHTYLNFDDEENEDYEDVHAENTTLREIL

Variants of: B1
Details: with lem3_yeast LEM3, P42838

| Variant | effect of a mutation on the interaction |
| --- | --- |
| D667E | disrupting interaction strength |
| D667N | disrupting interaction strength |

Variants of: B2
Details: with cdc50_yeast CDC50, P25656

| Variant | effect of a mutation on the interaction |
| --- | --- |
| D560E | decreasing interaction strength |
| E342Q | with no effect |
| G341L | decreasing interaction strength |

Variants of: B2
Details: with cdc50_yeast CDC50, P25656
Remark: another data set of the same source

| Variant | effect of a mutation on the interaction |
| --- | --- |
| D560N | decreasing interaction strength |
